The text below walks through data of PMC7357788, “Overlapping functions and protein-protein interactions of LRR-extensins in Arabidopsis” (PLoS Genetics, 2020).

“Also recorded” adds a separate entry of the source. Ends that are not written are not given here.

The test system of one test is LRX1^ΔE. Description: Co-IP of LRX1^ΔE-HA with RALF1-FLAG. It counts as binding, Arabidopsis thaliana. The settings on record: Co-IP and immunoblotting, transient expression in N. benthamiana. As for the experimental part: Here, we tested binding of RALF1 to LRX1.
For pulldown and Co-IP analysis of the different constructs indicated in the experiments DNA was infiltrated into Nicotiana benthamiana leaves, and after 48 hrs, the leaves were excised and ground in liquid nitrogen as described in [62]. Two hundred mg of tissue powder was re-suspended in 500 μL extraction buffer [200 mM Tris-HCl (pH 7.5), 150 mM NaCl, 1 mM PMSF, protease inhibitor and 0.5% Triton X-100]. The suspension was incubated on ice for 30 minutes and then centrifuged at 11,000 rpm for 20 minutes at 4°C. The supernatant (200 μL) was then incubated with 10 μL anti-HA (Thermo Scientific, 88837), or anti-FLAG magnetic beads overnight at 4°C on a rotating shaker. If RALF1 peptide was added, the peptide was diluted in such way that for every sample 1μL of peptide was added to the protein extracts. After incubation, the beads were washed five times with the wash buffer (extraction buffer containing 0.05% Triton X-100) and boiled in SDS-PAGE loading buffer for 15 minutes at 75°C. The immunoprecipitates were then run on an SDS-PAGE gel and transferred to nitrocellulose membrane to perform immunoblotting using the following antibodies: anti-FLAG M2 (Sigma-Aldrich, F3165), anti-GFP (Biolegend, 902601), anti-HA-HRP 3F10 (Roche, 12 013 819 001) and anti-mouse-HRP (Sigma Aldrich, A 4416). […]
(Immunoblotting shows a protein as a band on a membrane.)

The next test concerns LRX3, LRX4, and LRX5. The settings on record: vegetative tissues; ref [40],[41]; cited from earlier work. From the text: LRX proteins were recently identified as high-affinity binding sites for RALF peptides, with the binding spectrum differing among the LRXs. […] Whether and how the binding of RALFs and FER to LRXs influences the interaction of these proteins remains to be investigated. It is also unknown to what extent the different LRXs are functionally similar and whether they share FER as a common interaction ...

The test system of the next test is FLS2-BAK1. Conditions: ref [17]; cited from earlier work. From the text: Different LRXs bind an overlapping but not identical array of RALF peptides, and the full binding spectrum of the different LRXs might be even broader. One reason for the distinct RALF binding spectrum of LRXs is based on their expression pattern. […] It can be speculated that the diverse affinities of RALFs and LRXs contribute to the specificities of the plant’s response to different RALF peptides that have distinct biological activities [[17],[18],[19],[20],[26 ...

The target of test [1] is LRX1^ΔE-FLAG (Arabidopsis thaliana). Nature of the test: BLI; BLITZ; LRX^ΔE-FLAG mixed with anti-FLAG M2 antibody and loaded onto a protein A biosensor; synthetic RALF1 peptide added at 0.2-200 μM; association 120 s, dissociation 120 s; sample diluent buffer (Pall FortéBio). For orientation: In BLI a coated tip is dipped into the sample, and binding shifts an interference pattern.

Test [2] has as its target LRX3^ΔE-FLAG (Arabidopsis thaliana) (UniProt Q9T0K5). The test is described as above.
Test [3] concerns the target LRX4^ΔE-FLAG (Arabidopsis thaliana) (UniProt Q9LHF1). The test is described as above.
Test [4] concerns the target LRX5^ΔE-FLAG (Arabidopsis thaliana) (UniProt Q9SN46). Described as above.
Test [5] concerns FER^ECD. Nature of the test: Co-IP of LRX^ΔE with FER^ECD-Citrine. The settings on record: proteins expressed in N. benthamiana. It counts as binding, Arabidopsis thaliana. From the text:
The root hair-localized LRX1 is so far the best characterized LRX protein and the lrx1 root hair mutant represents a convenient genetic system for analyses of LRX protein function. […] To this end, constructs encoding LRX1^ΔE-FLAG and the extracellular domain of FER fused to citrine (FER^ECD-Citrine) under the 35S promoter were expressed in tobacco for Co-IP experiments. […] The Y2H experiments were extended to other LRXs of vegetative tissues, namely the LRR domains of LRX2, LRX3, LRX4, and LRX5.
For pulldown and Co-IP analysis of the different constructs indicated in the experiments DNA was infiltrated into Nicotiana benthamiana leaves, and after 48 hrs, the leaves were excised and ground in liquid nitrogen as described in [62]. Two hundred mg of tissue powder was re-suspended in 500 μL extraction buffer [200 mM Tris-HCl (pH 7.5), 150 mM NaCl, 1 mM PMSF, protease inhibitor and 0.5% Triton X-100]. The suspension was incubated on ice for 30 minutes and then centrifuged at 11,000 rpm for 20 minutes at 4°C. The supernatant (200 μL) was then incubated with 10 μL anti-HA (Thermo Scientific, 88837), or anti-FLAG magnetic beads overnight at 4°C on a rotating shaker. If RALF1 peptide was added, the peptide was diluted in such way that for every sample 1μL of peptide was added to the protein extracts. […]

Test [6] deals with FER^ECD. Description: Yeast-two-hybrid LRX LRR domain-FER^ECD. Type of test: binding, Arabidopsis thaliana. The settings on record: Y2H, yeast strain PJ69-4A, LRR domains, -Trp, Leu, His, Ade drop-out medium containing 5 mM 3-AT. From the text:
The BD-LRX4 and AD-FER^ECD constructs for the Yeast-two-hybrid experiment were cloned as previously described, where NtermFER equals AD-FER^ECD and LRR4 equals BD-LRX4. For the BD-LRX1/2/3/5 constructs, the coding sequence of the LRR domain of the LRXs was amplified using primers (S3 Table) to introduce a BamHI and a XhoI site at the 5’ and 3’ end of the PCR fragments, respectively. These were cloned into pJET1.2 (Thermo Scientific) and correct clones were cut with BamHI and XhoI and ligated into pGBKT7 cut with BamHI and SalI. The AD-RALF1 construct was cloned into pJET1.2 (Thermo Scientific) by amplification of the coding sequence with the primers y2h_RALF1_F and y2h_RALF1_R. A correct clone was cut with EcoRI and XmaI and ligated into pGADT7 cut with EcoRI and XmaI.
Transformation of the yeast strain PJ69-4A [63] was done following standard procedures and quadruple drop-out medium lacking Leu, Trp, His, and Ade were used to screen for positive interactions after 4 days incubation at 30°C. Three different colonies containing both vectors were mixed and plated in triplicates on quadruple drop-out medium.
Supplementary file pgen.1008847.s001.pdf: S1 Fig Interaction of LRXs and FER in yeast-two-hybrid assays. […]

Sequence of LRX4^ΔE-FLAG (Arabidopsis thaliana) (Q9LHF1 26-494, stated change not applied): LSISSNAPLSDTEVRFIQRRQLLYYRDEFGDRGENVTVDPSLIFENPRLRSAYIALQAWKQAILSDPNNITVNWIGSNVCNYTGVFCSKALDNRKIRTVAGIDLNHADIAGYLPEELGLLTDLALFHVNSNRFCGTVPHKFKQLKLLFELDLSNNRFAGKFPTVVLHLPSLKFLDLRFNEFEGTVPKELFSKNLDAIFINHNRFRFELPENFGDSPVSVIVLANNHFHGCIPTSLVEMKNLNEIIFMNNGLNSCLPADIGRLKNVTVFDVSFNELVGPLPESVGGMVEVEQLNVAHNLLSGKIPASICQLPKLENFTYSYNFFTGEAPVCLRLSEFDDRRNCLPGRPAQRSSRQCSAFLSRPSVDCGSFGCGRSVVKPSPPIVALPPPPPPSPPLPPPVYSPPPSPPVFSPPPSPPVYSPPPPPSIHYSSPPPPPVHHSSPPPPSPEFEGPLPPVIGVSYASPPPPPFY
Sequence of LRX5^ΔE-FLAG (Arabidopsis thaliana) (Q9SN46 32-857, stated change not applied): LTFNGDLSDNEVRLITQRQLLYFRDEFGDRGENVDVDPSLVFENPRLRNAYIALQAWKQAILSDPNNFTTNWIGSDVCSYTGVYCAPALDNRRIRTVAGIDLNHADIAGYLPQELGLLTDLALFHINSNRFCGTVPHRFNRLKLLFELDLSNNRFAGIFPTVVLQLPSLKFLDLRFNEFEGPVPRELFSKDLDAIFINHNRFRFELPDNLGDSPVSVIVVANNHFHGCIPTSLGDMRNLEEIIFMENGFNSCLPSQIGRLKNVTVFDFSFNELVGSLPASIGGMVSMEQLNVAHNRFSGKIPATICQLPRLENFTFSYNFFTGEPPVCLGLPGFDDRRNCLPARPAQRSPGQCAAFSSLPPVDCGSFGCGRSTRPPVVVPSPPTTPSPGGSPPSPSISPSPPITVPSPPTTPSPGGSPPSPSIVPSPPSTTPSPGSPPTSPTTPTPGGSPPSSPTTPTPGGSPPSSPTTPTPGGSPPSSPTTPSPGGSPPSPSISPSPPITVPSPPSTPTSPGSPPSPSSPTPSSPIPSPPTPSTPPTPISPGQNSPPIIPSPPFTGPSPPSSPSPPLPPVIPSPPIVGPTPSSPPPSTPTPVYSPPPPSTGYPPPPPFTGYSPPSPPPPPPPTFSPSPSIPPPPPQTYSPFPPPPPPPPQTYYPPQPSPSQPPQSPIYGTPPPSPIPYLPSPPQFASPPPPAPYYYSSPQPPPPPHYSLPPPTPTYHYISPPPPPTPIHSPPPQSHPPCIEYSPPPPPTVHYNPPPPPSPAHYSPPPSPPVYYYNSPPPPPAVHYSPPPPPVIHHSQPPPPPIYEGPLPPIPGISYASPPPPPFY

Turning to “RALF1-FLAG: FLAG-tagged RALF1 transiently expressed in N. benthamiana (ATTKYISYQSLKRNSVPCSRRGASYYNCQNGAQANPYSRGCSKIARCRS; ends and bridges not checked; also: FLAG tag, site not given here; UniProt Q9SRY3 72-120, looked up)”, in the test with LRX1^ΔE, the “interaction with LRX1^ΔE” value is recorded as “showed interaction of the two proteins”.
Turning to “RALF23: RALF peptide reported to be bound by LRX3, LRX4, and LRX5 (ATRRYISYGALRRNTIPCSRRGASYYNCRRGAQANPYSRGCSAITRCRRS; UniProt Q9LUS7 89-138, looked up)”, the “binding to LRX3, LRX4, and LRX5” value in the test on LRX3, LRX4, and LRX5 is “reported to bind”. The “effect on scaffolding function of FER” value with FLS2-BAK1 is reported as “inducing the dissociation of FLS2 from BAK1”.

B1: synthetic RALF1 peptide (peptide)
peptide: ATTKYISYQSLKRNSVPCSRRGASYYNCQNGAQANPYSRGCSKIARCRS
For B1, the Kd (commonly the constant that tells how readily two partners part at equilibrium) in [1] stood at 4.5 nM; in test [2] it was 11000 nM; in [3] it was 5.5 nM; in test [4], 3.5 nM.

B2: LRX3^ΔE: LRX3 lacking the extensin domain (protein)
chain: LSISSDGGVLSDNEVRHIQRRQLLEFAERSVKITVDPSLNFENPRLRNAYIALQAWKQAILSDPNNFTSNWIGSNVCNYTGVFCSPALDNRKIRTVAGIDLNHADIAGYLPEELGLLSDLALFHVNSNRFCGTVPHRFNRLKLLFELDLSNNRFAGKFPTVVLQLPSLKFLDLRFNEFEGTVPKELFSKDLDAIFINHNRFRFELPENFGDSPVSVIVLANNRFHGCVPSSLVEMKNLNEIIFMNNGLNSCLPSDIGRLKNVTVFDVSFNELVGPLPESVGEMVSVEQLNVAHNMLSGKIPASICQLPKLENFTYSYNFFTGEAPVCLRLPEFDDRRNCLPGRPAQRSPGQCKAFLSRPPVNCGSFSCGRSVSPRPPVVTPLPPPSLPSPPPPAPIFSTPPTLTSPPPPSPPPPVYSPPPPPPPPPPVYSPPPPPPPPPPPPVYSPPPPPPPPPPPPPVYSPPPPSPPPPPPPVYSPPPPPPPPPPPPVYSPPPPPVYSSPPPPPSPAPTPVYCTRPPPPPPHSPPPPQFSPPPPEPYYYSSPPPPHSSPPPHSPPPPHSPPPPIYPYLSPPPPPTPVSSPPPTPVYSPPPPPPCIEPPPPPPCIEYSPPPPPPVVHYSSPPPPPVYYSSPPPPPVYYSSPPPPPPVHYSSPPPPEVHYHSPPPSPVHYSSPPPPPSAPCEESPPPAPVVHHSPPPPMVHHSPPPPVIHQSPPPPSPEYEGPLPPVIGVSYASPPPPPFY
modifications: left off: double FLAG, C-terminal, kept
notes: LRX3 lacking the extensin domain
B2: the “interaction with FER^ECD” value with FER^ECD [5] is “revealed interaction of the two proteins; also recorded: show interaction with FER^ECD”.

B3: LRX1: LRR domain of LRX1 (BD-LRX1), gene At1g12040 (protein)
chain: MLFPPLRSLFLFTLLLSSVCFLQIKADHDDESDLGSDIKVDKRLKFENPKLRQAYIALQSWKKAIFSDPFNFTANWNGSDVCSYNGIYCAPSPSYPKTRVVAGIDLNHADMAGYLASELGLLSDLALFHINSNRFCGEVPLTFNRMKLLYELDLSNNRFVGKFPKVVLSLPSLKFLDLRYNEFEGKIPSKLFDRELDAIFLNHNRFRFGIPKNMGNSPVSALVLADNNLGGCIPGSIGQMGKTLNELILSNDNLTGCLPPQIGNLKKVTVFDITSNRLQGPLPSSVGNMKSLEELHVANNAFTGVIPPSICQLSNLENFTYSSNYFSGRPPICAASLLADIVVNGTMNCITGLARQRSDKQCSSLLARPVDCSKFGCYNIFSPPPPTFKMSPEVRTLPPPIYVYSSPPPPPSSKMSPTVRAYSPPPPPSSKMSPSVRAYSPPPPPYSKMSPSVRAYPPPPPPSPSPPPPYVYSSPPPPYVYSSPPPPPYVYSSPPPPPYVYSSPPPPYVYSSPPPPYVYSSPPPPPPSPPPPCPESSPPPPVVYYAPVTQSPPPPSPVYYPPVTQSPPPPSPVYYPPVTNSPPPPSPVYYPPVTYSPPPPSPVYYPQVTPSPPPPSPLYYPPVTPSPPPPSPVYYPPVTPSPPPPSPVYYPPVTPSPPPPSPVYYPSETQSPPPPTEYYYSPSQSPPPTKACKEGHPPQATPSYEPPPEYSYSSSPPPPSPTSYFPPMPSVSYDASPPPPPSYY
modifications: left off: Gal4 DNA-binding domain (from the vector pGBKT7), end not stated, kept
notes: LRR domain of LRX1 (BD-LRX1), gene At1g12040
For the molecule B3, the entries for the “interaction with FER^ECD” value in the test with FER^ECD [6] and with FER^ECD [5] (listed as LRX1^ΔE) were “confirmed in a yeast-two-hybrid (Y2H) experiment” and “show interaction with FER^ECD”, respectively.
